B1: Ferredoxin-thioredoxin reductase, catalytic chain (Synechocystis sp. (strain PCC 6803 / Kazusa)), Q55389 (parent)
chain: MTSSDTQNNKTLAAMKNFAEQYAKRTDTYFCSDLSVTAVVIEGLARHKEELGSPLCPCRHYEDKEAEVKNTFWNCPCVPMRERKECHCMLFLTPDNDFAGDAQDIPMETLEEVKASMA
partner: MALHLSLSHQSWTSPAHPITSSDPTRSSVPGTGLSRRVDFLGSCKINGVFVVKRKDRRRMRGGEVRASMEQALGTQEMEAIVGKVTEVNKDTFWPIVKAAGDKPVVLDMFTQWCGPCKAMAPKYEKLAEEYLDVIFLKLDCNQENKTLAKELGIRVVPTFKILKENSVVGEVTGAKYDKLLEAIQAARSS
B2: Thioredoxin M-type, chloroplastic (Spinacia oleracea (Spinach)), P07591 (parent)
chain: MAIENCLQLSTSASVGTVAVKSHVHHLQPSSKVNVPTFRGLKRSFPALSSSVSSSSPRQFRYSSVVCKASEAVKEVQDVNDSSWKEFVLESEVPVMVDFWAPWCGPCKLIAPVIDELAKEYSGKIAVYKLNTDEAPGIATQYNIRSIPTVLFFKNGERKESIIGAVPKSTLTDSIEKYLSP
partner: B1 chain
B3: Ferredoxin-thioredoxin reductase, catalytic chain (Synechocystis sp. (strain PCC 6803 / Kazusa)), Q55389 (parent)
chain: B1 chain
partner: B2 chain

Variants of: B1
Details: with trxf_spiol trxf
For MTSSDTQNNKTLAAMKNFAEQYAKRTDTYFCSDLSVTAVVIEGLARHKEELGSPLCPSRHYEDKEAEVKNTFWNCPCVPMRERKECHCMLFLTPDNDFAGDAQDIPMETLEEVKASMA [C58S], the “effect of a mutation on the interaction” value was “increasing interaction”.

Variants of: B2
Details: with ftrc_syny3 ftrC, Q55389
For MAIENCLQLSTSASVGTVAVKSHVHHLQPSSKVNVPTFRGLKRSFPALSSSVSSSSPRQFRYSSVVCKASEAVKEVQDVNDSSWKEFVLESEVPVMVDFWAPWCGPSKLIAPVIDELAKEYSGKIAVYKLNTDEAPGIATQYNIRSIPTVLFFKNGERKESIIGAVPKSTLTDSIEKYLSP [C107S], the “effect of a mutation on the interaction” value was “increasing interaction”.

Variants of: B3
Details: with trxm_spiol trxm, P07591
For MTSSDTQNNKTLAAMKNFAEQYAKRTDTYFCSDLSVTAVVIEGLARHKEELGSPLCPCRHYEDKEAEVKNTFWNCPCVPMRERKECYCMLFLTPDNDFAGDAQDIPMETLEEVKASMA [H87Y], the “effect of a mutation on the interaction” value was “decreasing interaction”.
